From patent US20220106360A1 (UNIVERSITY OF PITTSBURGH OF THE COMMONWEALTH SYSTEM OF …, published 2022)

T1: VAPA 1-242 expressed from pEGFP-N1-VAPA; 1-242 (Addgene #18874) in HEK293 cells (UniProt Q9Z270 1-242)
T1 construct: range 1-242; Used as a whole lysate of transfected HEK293 cells (1 mg/ml total protein), detected with anti-VAPA antibody; also called VAMP-associated protein A; VAPA proteins; not shown: EGFP implied by the vector name pEGFP-N1
T1 sequence (looked up): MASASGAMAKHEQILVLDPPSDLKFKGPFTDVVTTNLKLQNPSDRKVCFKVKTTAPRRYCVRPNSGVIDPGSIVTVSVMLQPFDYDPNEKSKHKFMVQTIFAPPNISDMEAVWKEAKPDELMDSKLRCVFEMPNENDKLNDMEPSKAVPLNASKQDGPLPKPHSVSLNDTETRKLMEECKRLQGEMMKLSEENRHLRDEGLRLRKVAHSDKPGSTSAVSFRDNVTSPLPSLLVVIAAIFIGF

T2: Kv2.1 (endogenous, rat cortical neurons) (rat, UniProt P15387 1-857)
T2 construct: Endogenous channel in fixed, permeabilised primary cortical neurons of Sprague-Dawley rats, detected with a rabbit anti-Kv2.1 antibody; also called delayed-rectifying voltage-gated potassium channel Kv2.1
T2 sequence: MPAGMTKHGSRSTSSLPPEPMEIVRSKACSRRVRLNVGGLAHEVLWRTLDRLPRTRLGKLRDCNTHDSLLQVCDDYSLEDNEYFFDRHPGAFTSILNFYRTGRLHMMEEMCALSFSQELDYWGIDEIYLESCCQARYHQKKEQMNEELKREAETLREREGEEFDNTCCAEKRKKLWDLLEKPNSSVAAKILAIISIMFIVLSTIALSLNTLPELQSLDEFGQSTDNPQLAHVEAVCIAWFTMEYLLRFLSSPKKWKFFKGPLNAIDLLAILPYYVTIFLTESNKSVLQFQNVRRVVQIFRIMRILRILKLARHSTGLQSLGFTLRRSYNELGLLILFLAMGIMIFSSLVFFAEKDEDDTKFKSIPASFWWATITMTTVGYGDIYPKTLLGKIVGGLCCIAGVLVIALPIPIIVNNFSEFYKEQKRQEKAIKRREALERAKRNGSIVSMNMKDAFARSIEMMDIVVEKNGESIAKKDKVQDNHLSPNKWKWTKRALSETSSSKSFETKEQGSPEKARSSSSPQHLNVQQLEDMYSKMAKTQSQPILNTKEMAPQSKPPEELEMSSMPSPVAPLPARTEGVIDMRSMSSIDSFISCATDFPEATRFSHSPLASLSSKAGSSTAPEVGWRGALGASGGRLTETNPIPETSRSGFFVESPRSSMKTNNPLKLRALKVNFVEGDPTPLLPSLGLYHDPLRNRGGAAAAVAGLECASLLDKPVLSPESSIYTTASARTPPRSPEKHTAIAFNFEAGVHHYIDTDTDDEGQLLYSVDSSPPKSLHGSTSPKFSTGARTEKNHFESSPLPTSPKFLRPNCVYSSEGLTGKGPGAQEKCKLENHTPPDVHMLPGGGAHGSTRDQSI


Target: T1, VAPA 1-242 expressed from …
Assay: peptide spot array (far western) with lysate of HEK293 cells expressing VAPA 1-242, anti-VAPA detection
Description: Standard 9-fluorenylmethoxy carbonyl chemistry was used to synthesize peptides and spot them onto Celluspots nitrocellulose disks prederivatized with a polyethylene glycerol spacer (Intavis), using the Respep peptide synthesizer. The peptides were spotted on 20 membranes fitted on microscope glass slides (Intavis) using an Intavis MultiPep robot. For hybridization and immunoblotting of arrays, Celluspots slides were washed in TBST (50 mM Tris-HCl, pH 7.4, 150 mM NaCl, 0.1% Tween 20) for 10 minutes, […] blocked for 1 hour at room temperature (RT) with gentle shaking in TBST containing 5% nonfat dry milk. Lysates from HEK293 cells transfected as before (Yeh et al., J Neurosci. 37: 5648-5658, 2017; Yeh et al., Proc Natl Acad Sci USA. 116: 15696-15607, 2019; Dustrude et al., Proc Natl Acad Sci USA. 113: E8443-E8452, 2016) with pEGFP-N1-VAPA; 1-242 (Addgene #18874) were made in 20 mM Tris, 50 mM NaCl, 2 mM MgCl₂, 1% Tergitol, 0.5% sodium deoxycholate, 0.1% sodium dodecyl sulfate with protease (Cat #B14002, Bimake), phosphatase (Cat #B15002, Bimake) inhibitor cocktails and 5 U/ml of universal nuclease (Cat #88702, Thermofisher) added extemporaneously. The concentration of lysates was measured by BCA (Cat #23227, Thermofisher) and peptide arrays were incubated with 1 mg/ml of total protein overnight at 4° C. (Yeh et al., J Neurosci. 37: 5648-5658, 2017; Yeh et al., Proc Natl Acad Sci USA. 116: 15696-15607, 2019; Moutal et al., Pain. 158: 2203-2221, 2017). Peptide arrays were washed 3 times for 5 minutes at RT with TBST and incubated with the primary antibody anti-VAPA (RRID AB_2722707; UC Davis/NIH NeuroMab Facility) for 2 hours at RT with gentle shaking in TBST, 5% BSA. After washing with TBST, the membranes were incubated in secondary antibody (IRDye® 800CW goat anti-mouse IgG secondary antibody; RRID AB_621842; Li-Cor) for 45 minutes, washed 3 times for 5 minutes in TBST, and visualized by infrared fluorescence (Li-Cor). Four independent peptide spot arrays were used in this study. Fluorescence intensity was analyzed with Image studio (Li-Cor).

Binder | binding result
SIDSFTS (Synthesised and spotted on Celluspots membrane through a polyethylene glycerol spacer (peptide spot array); also called declustering peptide 2) [DP-2 peptide (SIDSFTS)] | no binding (tested: lysate at 1 mg/ml of total protein)
SIDDFTD [Ser to Asp mutant of DP-2 (SIDDFTD)] | no binding (tested: lysate at 1 mg/ml of total protein)
SIDSFTE [Ser to Glu mutant of DP-2 (SIDSFTE)] | no binding (tested: lysate at 1 mg/ml of total protein)
EIDSFTE [Ser to Glu mutant of DP-2 (EIDSFTE)] | no binding (tested: lysate at 1 mg/ml of total protein)
SIDEFTE [Ser to Glu mutant of DP-2 (SIDEFTE)] | no binding (tested: lysate at 1 mg/ml of total protein)
DIDDFTD [Ser to Asp mutant of DP-2 (DIDDFTD)] | no binding (tested: lysate at 1 mg/ml of total protein)
SIDDFTS [Ser to Asp mutant of DP-2 (SIDDFTS)] | no binding (tested: lysate at 1 mg/ml of total protein)
DIDSFTS [Ser to Asp mutant of DP-2 (DIDSFTS)] | no binding (tested: lysate at 1 mg/ml of total protein)
EIDSFTS [Ser to Glu mutant of DP-2 (EIDSFTS)] | no binding (tested: lysate at 1 mg/ml of total protein)
EIDEFTS [Ser to Glu mutant of DP-2 (EIDEFTS)] | no binding (tested: lysate at 1 mg/ml of total protein)
SIDEFTS [Ser to Glu mutant of DP-2 (SIDEFTS)] | no binding (tested: lysate at 1 mg/ml of total protein)
EIDEFTE [Ser to Glu mutant of DP-2 (EIDEFTE)] | no binding (tested: lysate at 1 mg/ml of total protein)
DIDDFTS [Ser to Asp mutant of DP-2 (DIDDFTS)] | no binding (tested: lysate at 1 mg/ml of total protein)
SIDSFTD [Ser to Asp mutant of DP-2 (SIDSFTD)] | no binding (tested: lysate at 1 mg/ml of total protein)
DIDSFTD [Ser to Asp mutant of DP-2 (DIDSFTD)] | no binding (tested: lysate at 1 mg/ml of total protein)
SFISCAT (The text says it was tested on the peptide array) [non-canonical FFAT motif of Kv2.1 (SFISCAT)] | no binding (tested: lysate at 1 mg/ml of total protein)
SFTSCAT [non-canonical FFAT motif of Kv2.2 (SFTSCAT)] | no binding (tested: lysate at 1 mg/ml of total protein)

Target: T2, Kv2.1 (endogenous, rat cortical neurons)
Assay: proximity ligation assay in fixed rat cortical neurons
Description: Duolink proximity ligation assay (PLA) technology (Sigma-Aldrich, St. Louis, Mo.) was utilized to assess in situ protein-protein interaction between Kv2.1 and vesicle-associated molecular protein (VAMP)-associated protein A (VAPA). Primary cortical neurons on glass coverslips were treated in 24-well plates with vehicle (dH₂O), TAT-Sc-2 (10 μM), or TAT-DP-2 (10 μM) for 2 hours at 37° C./5% CO₂. Neurons were then rinsed with 2 mL ice-cold sterile PBS and then transferred to 1 mL 4% paraformaldehyde (PFA) in PBS for 20 minutes to fix. Coverslips were transferred to 1 mL 0.1 M glycine (in PBS) to quench fixation and rinsed three times in 1 mL PBS. Membrane permeabilization was accomplished with 1 mL 0.25% Triton X-100 (Sigma-Aldrich, St. Louis, Mo.) and non-specific binding was blocked with 10% bovine serum albumin (in PBS) for 30 minutes. Primary immunolabeling was accomplished by 18-24 hour exposure to rabbit anti-Kv2.1 polyclonal antibody (1:500 in 3% BSA; RRID AB_2040162; Alomone Labs, Jerusalem, Israel), mouse anti-VAPA monoclonal antibody (1:500 in 3% BSA; RRID AB_2722702; UC Davis/NeuroMab Facility), and chicken anti-MAP2 polyclonal antibody (1:1000 in 3% BSA; RRID AB_5392; Abcam, Cambridge, Mass.) in 3% BSA (in PBS) at 4° C. under gentle agitation. […]

binding result | Binder
binds | VAPA (endogenous, rat cortical neurons) (other, UniProt Q9Z270 2-249, looked up, whole, on cells; Endogenous ER protein inside fixed, permeabilised neurons, detected with a mouse anti-VAPA antibody; also called VAMP-associated protein A) ASASGAMAKHEQILVLDPPSDLKFKGPFTDVVTTNLKLQNPSDRKVCFKVKTTAPRRYCVRPNSGVIDPGSIVTVSVMLQPFDYDPNEKSKHKFMVQTIFAPPNISDMEAVWKEAKPDELMDSKLRCVFEMPNENDKLNDMEPSKAVPLNASKQDGPLPKPHSVSLNDTETRKLMEECKRLQGEMMKLSEENRHLRDEGLRLRKVAHSDKPGSTSAVSFRDNVTSPLPSLLVVIAAIFIGFFLGKFIL
